Sequences and labels used below:
B1: Ras GTPase-activating protein 1, residues 281 to 341; numbered along this chain, P20936 (parent)
chain: RRRVRAILPYTKVPDTDEISFLKGDMFIVHNELEDGWMWVTNLRTDEQGLIVEDLVEEVGR

± gives the uncertainty stated by the source.

The variants in this data set derive from B1. The experiment in a line: abundance fitness (aPCA) (normalised: wild type 0, dead -1); higher = more abundant; growth selection in yeast, the domain comes from the species named. The note with it: Homo sapiens.
As to RRRVRAILPYTKVPDTDEISFLKGDMFIVHNELEDGWMWVTNLRTDEQGLIVEDLVESVGR [E58S], the abundance fitness is -0.064 ± 0.026.

Take RRRVRAILPYTKVPDTDEISFLKGDMFIVHNELEDGWMWVTNLRTDEQGLIVEDLVEMVGR [E58M]: the abundance fitness was -0.326 ± 0.061. The value for RRRVRAILPYTKVPDTDEISFLKGDMFIVHNELEDGWMWVTNLRTDEQGLIVEDLVEHVGR [E58H] was -0.156 ± 0.034; that for RRRVRAILPYTKVPDTDEISFLKGDMFIVHNELEDGWMWVTNLRTDEQGLIVEDLVEGVGR [E58G] was -0.156 ± 0.034; that for RRRVRAILPYTKVPDTDEISFLKGDMFIVHNELEDGWMWVTNLRTDEQGLIVEDLVEYVGR [E58Y] was -0.305 ± 0.031.

Take RRRVRAILPYTKVPDTDEISFLKGDMFIVHNELEDGWMWVTNLRTDEQGLIVEDLVEQVGR [E58Q]: the abundance fitness was -0.113 ± 0.069. Take RRRVRAILPYTKVPDTDEISFLKGDMFIVHNELEDGWMWVTNLRTDEQGLIVEDLVEKVGR [E58K]: the abundance fitness was -0.156 ± 0.063. As for RRRVRAILPYTKVPDTDEISFLKGDMFIVHNELEDGWMWVTNLRTDEQGLIVEDLVETVGR [E58T], the abundance fitness is -0.023 ± 0.039. Regarding RRRVRAILPYTKVPDTDEISFLKGDMFIVHNELEDGWMWVTNLRTDEQGLIVEDLVEFVGR [E58F], the abundance fitness was -0.285 ± 0.03. For the variant RRRVRAILPYTKVPDTDEISFLKGDMFIVHNELEDGWMWVTNLRTDEQGLIVEDLVEWVGR [E58W], the abundance fitness is -0.106 ± 0.061.

Regarding RRRVRAILPYTKVPDTDEISFLKGDMFIVHNELEDGWMWVTNLRTDEQGLIVEDLVERVGR [E58R], the abundance fitness is -0.171 ± 0.035. RRRVRAILPYTKVPDTDEISFLKGDMFIVHNELEDGWMWVTNLRTDEQGLIVEDLVEVVGR [E58V]: the abundance fitness is -0.201 ± 0.035. The value for RRRVRAILPYTKVPDTDEISFLKGDMFIVHNELEDGWMWVTNLRTDEQGLIVEDLVELVGR [E58L] was -0.348 ± 0.033; that for RRRVRAILPYTKVPDTDEISFLKGDMFIVHNELEDGWMWVTNLRTDEQGLIVEDLVEEDGR [V59D] was -0.067 ± 0.033. Take RRRVRAILPYTKVPDTDEISFLKGDMFIVHNELEDGWMWVTNLRTDEQGLIVEDLVEEIGR [V59I]: the abundance fitness is -0.04 ± 0.029. The value for RRRVRAILPYTKVPDTDEISFLKGDMFIVHNELEDGWMWVTNLRTDEQGLIVEDLVEEQGR [V59Q] was -0.055 ± 0.05; that for RRRVRAILPYTKVPDTDEISFLKGDMFIVHNELEDGWMWVTNLRTDEQGLIVEDLVEEGGR [V59G] was -0.176 ± 0.029. The result for RRRVRAILPYTKVPDTDEISFLKGDMFIVHNELEDGWMWVTNLRTDEQGLIVEDLVEENGR [V59N] reads -0.19 ± 0.033; that for RRRVRAILPYTKVPDTDEISFLKGDMFIVHNELEDGWMWVTNLRTDEQGLIVEDLVEETGR [V59T], -0.113 ± 0.031; that for RRRVRAILPYTKVPDTDEISFLKGDMFIVHNELEDGWMWVTNLRTDEQGLIVEDLVEEKGR [V59K], -0.451 ± 0.079. The value for RRRVRAILPYTKVPDTDEISFLKGDMFIVHNELEDGWMWVTNLRTDEQGLIVEDLVEEHGR [V59H] was -0.124 ± 0.03; that for RRRVRAILPYTKVPDTDEISFLKGDMFIVHNELEDGWMWVTNLRTDEQGLIVEDLVEEEGR [V59E] was 0.011 ± 0.053. Consider RRRVRAILPYTKVPDTDEISFLKGDMFIVHNELEDGWMWVTNLRTDEQGLIVEDLVEEMGR [V59M], for which the abundance fitness is -0.027 ± 0.047. The result for RRRVRAILPYTKVPDTDEISFLKGDMFIVHNELEDGWMWVTNLRTDEQGLIVEDLVEELGR [V59L] reads -0.066 ± 0.027; that for RRRVRAILPYTKVPDTDEISFLKGDMFIVHNELEDGWMWVTNLRTDEQGLIVEDLVEEAGR [V59A], -0.027 ± 0.032; that for RRRVRAILPYTKVPDTDEISFLKGDMFIVHNELEDGWMWVTNLRTDEQGLIVEDLVEECGR [V59C], -0.041 ± 0.028. RRRVRAILPYTKVPDTDEISFLKGDMFIVHNELEDGWMWVTNLRTDEQGLIVEDLVEEFGR [V59F]: the abundance fitness is -0.106 ± 0.025. The value for RRRVRAILPYTKVPDTDEISFLKGDMFIVHNELEDGWMWVTNLRTDEQGLIVEDLVEEWGR [V59W] was -0.137 ± 0.052; that for RRRVRAILPYTKVPDTDEISFLKGDMFIVHNELEDGWMWVTNLRTDEQGLIVEDLVEERGR [V59R] was -0.372 ± 0.033; that for RRRVRAILPYTKVPDTDEISFLKGDMFIVHNELEDGWMWVTNLRTDEQGLIVEDLVEEVGM [R61M] was -0.031 ± 0.065.

In the case of RRRVRAILPYTKVPDTDEISFLKGDMFIVHNELEDGWMWVTNLRTDEQGLIVEDLVEEVGL [R61L], the abundance fitness was found to be 0.039 ± 0.037. Regarding RRRVRAILPYTKVPDTDEISFLKGDMFIVHNELEDGWMWVTNLRTDEQGLIVEDLVEEVGV [R61V], the abundance fitness is 0.079 ± 0.039. The value for RRRVRAILPYTKVPDTDEISFLKGDMFIVHNELEDGWMWVTNLRTDEQGLIVEDLVEEVGF [R61F] was 0.021 ± 0.043; that for RRRVRAILPYTKVPDTDEISFLKGDMFIVHNELEDGWMWVTNLRTDEQGLIVEDLVEEVGD [R61D] was 0.039 ± 0.04; that for RRRVRAILPYTKVPDTDEISFLKGDMFIVHNELEDGWMWVTNLRTDEQGLIVEDLVEEVGY [R61Y] was -0.076 ± 0.031. The result for RRRVRAILPYTKVPDTDEISFLKGDMFIVHNELEDGWMWVTNLRTDEQGLIVEDLVEEVGT [R61T] reads 0.092 ± 0.037. On to RRRVRAILPYTKVPDTDEISFLKGDMFIVHNELEDGWMWVTNLRTDEQGLIVEDLVEEVGA [R61A], for which the abundance fitness is 0.067 ± 0.051. The value for RRRVRAILPYTKVPDTDEISFLKGDMFIVHNELEDGWMWVTNLRTDEQGLIVEDLVEEVGI [R61I] was -0.003 ± 0.029; that for RRRVRAILPYTKVPDTDEISFLKGDMFIVHNELEDGWMWVTNLRTDEQGLIVEDLVEEVGG [R61G] was 0.034 ± 0.048. RRRVRAILPYTKVPDTDEISFLKGDMFIVHNELEDGWMWVTNLRTDEQGLIVEDLVEEVGE [R61E]: the abundance fitness amounted to 0.234 ± 0.16.

For RRRVRAILPYTKVPDTDEISFLKGDMFIVHNELEDGWMWVTNLRTDEQGLIVEDLVEEVGP [R61P], the abundance fitness amounted to 0.104 ± 0.046. RRRVRAILPYTKVPDTDEISFLKGDMFIVHNELEDGWMWVTNLRTDEQGLIVEDLVEEVGK [R61K]: the abundance fitness amounted to 0.108 ± 0.074. In the case of RRRVRAILPYTKVPDTDEISFLKGDMFIVHNELEDGWMWVTNLRTDEQGLIVEDLVEEVGH [R61H], the abundance fitness was 0.012 ± 0.032. With RRRVRAILPYTKVPDTDEISFLKGDMFIVHNELEDGWMWVTNLRTDEQGLIVEDLVEEVGW [R61W], the abundance fitness turned out to be 0.07 ± 0.076. The value for RRRVRAILPYTKVPDTDEISFLKGDMFIVHNELEDGWMWVTNLRTDEQGLIVEDLVEEVGQ [R61Q] was 0.044 ± 0.083.

Values taken from the Human Domainome abundance scans (Beltran et al. 2025).
